Laboratory results as given in patent US20200277369A1 (Novartis, published 2020).

Biological target: T1, human homodimer IL-17A (human, UniProt Q16552 24-155)
T1 construct: Homodimer as printed; also called interleukin-17A
Assay: not stated (affinity given in running text of Example 1, no method)

T1 sequence (Q16552 24-155 limits assumed): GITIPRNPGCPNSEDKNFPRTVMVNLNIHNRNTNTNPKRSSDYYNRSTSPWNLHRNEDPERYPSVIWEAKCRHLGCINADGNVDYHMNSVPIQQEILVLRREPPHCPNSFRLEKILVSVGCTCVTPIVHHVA

B1: CJM112 (antibody, V domains shown)
VH: EVQLVESGGDLVQPGGSLRLSCAASGFTFSSYWMSWVRQAPGKGLEWVANIKQDGSEKYYVDSVKGRFTISRDNAKNSLYLQMNSLRAEDTAVYYCARDRGSLYYWGQGTLVTVSS
VL: AIQLTQSPSSLSASVGDRVTITCRPSQGINWELAWYQQKPGKAPKLLIYDASSLEQGVPSRFSGSGSGTDFTLTISSLQPEDFATYYCQQFNSYPLTFGGGTKVEIK
Question: B1 was tested. Which Kd did it give?
Answer: 6 pM
